From the supplement of paper PMC9112550, “Optimization of the antimicrobial peptide Bac7 by deep mutational scanning” (BMC Biology, 2022)

tested on: Escherichia coli TOP10; experiment: shrunken log2 fold change of peptide-encoding DNA abundance (4.5 h post-induction vs induction); higher = less antimicrobial activity (less host growth inhibition); conditions: time post-induction: 4.5 h; library: site-saturation at positions 5, 18, 19, 20
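Also: peptides expressed intracellularly from a pBAD plasmid library in pooled LB shake-flask culture, induced with 0.3% L-arabinose, DNA abundance read by NGS, three biological replicates, DESeq2 with apeglm shrinkage.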

Sequence | shrunken log2 fold change
RRIRDRPPRLPRPRPRPKLSPRP | 0.0504
RRIRCRPPRLPRPRPRPENMPRP | -0.57
RRIRFRPPRLPRPRPRPVYHPRP | -1.19
RRIRARPPRLPRPRPRPYTIPRP | -0.236
RRIRMRPPRLPRPRPRPFKTPRP | -0.117
RRIRPRPPRLPRPRPRPAHKPRP | -0.46
RRIRGRPPRLPRPRPRPRAIPRP | 0.733
RRIRARPPRLPRPRPRPNFCPRP | 0.24
RRIRIRPPRLPRPRPRPYWFPRP | -0.112
RRIRHRPPRLPRPRPRPFPRPRP | 0.0685
RRIRRRPPRLPRPRPRPSAYPRP | 0.104
RRIRPRPPRLPRPRPRPMRAPRP | 0.788
RRIRQRPPRLPRPRPRPMCVPRP | -0.308
RRIRCRPPRLPRPRPRPNTPPRP | -0.345
RRIRQRPPRLPRPRPRPGGVPRP | 0.463
RRIRWRPPRLPRPRPRPKPGPRP | 0.34
RRIRIRPPRLPRPRPRPNFYPRP | -0.565
RRIRYRPPRLPRPRPRPHAMPRP | -0.221
RRIRWRPPRLPRPRPRPACPPRP | 0.105
RRIRERPPRLPRPRPRPKEYPRP | -0.0204
RRIRKRPPRLPRPRPRPTMNPRP | -0.00264
RRIRTRPPRLPRPRPRPELEPRP | 0.0188

Sequence | shrunken log2 fold change
RRIRWRPPRLPRPRPRPRMMPRP | 0.0684
RRIRCRPPRLPRPRPRPGKCPRP | -0.173
RRIRQRPPRLPRPRPRPFIAPRP | -0.277
RRIRDRPPRLPRPRPRPFNDPRP | -0.158
RRIRPRPPRLPRPRPRPFHEPRP | -0.187
RRIRWRPPRLPRPRPRPPLIPRP | -0.0843
RRIRSRPPRLPRPRPRPAVHPRP | 0.0588
RRIRTRPPRLPRPRPRPKVIPRP | -0.503
RRIRWRPPRLPRPRPRPKFPPRP | 0.944
RRIRLRPPRLPRPRPRPFTGPRP | -0.204
RRIRKRPPRLPRPRPRPFGRPRP | -0.209
RRIRARPPRLPRPRPRPLMCPRP | 0.0392
RRIRLRPPRLPRPRPRPHNNPRP | -0.847
RRIRARPPRLPRPRPRPDTQPRP | 0.374
RRIRIRPPRLPRPRPRPENGPRP | -0.219
RRIRLRPPRLPRPRPRPAFYPRP | 0.903
RRIRKRPPRLPRPRPRPADFPRP | 0.344
RRIRYRPPRLPRPRPRPMNNPRP | -1.28
RRIRVRPPRLPRPRPRPHNLPRP | -0.356
RRIRMRPPRLPRPRPRPNCKPRP | 0.102
RRIRVRPPRLPRPRPRPVQHPRP | -0.0336
RRIRIRPPRLPRPRPRPPRMPRP | 0.21

Sequence | shrunken log2 fold change
RRIRGRPPRLPRPRPRPVHPPRP | 2.04
RRIRTRPPRLPRPRPRPEATPRP | 1.05
RRIRNRPPRLPRPRPRPVPQPRP | 0.24
RRIRPRPPRLPRPRPRPESVPRP | 0.0986
RRIRFRPPRLPRPRPRPACWPRP | 0.471
RRIRTRPPRLPRPRPRPVAFPRP | -0.225
RRIRTRPPRLPRPRPRPWAGPRP | -0.0234
RRIRRRPPRLPRPRPRPERIPRP | 0.0278
RRIRMRPPRLPRPRPRPYNKPRP | -0.561
RRIRERPPRLPRPRPRPKQTPRP | -0.0871
RRIRHRPPRLPRPRPRPVMCPRP | -0.175
RRIRFRPPRLPRPRPRPKRAPRP | 0.244
RRIRSRPPRLPRPRPRPLRTPRP | 0.787
RRIRFRPPRLPRPRPRPLKCPRP | -0.189
RRIRWRPPRLPRPRPRPECTPRP | 0.255
RRIRGRPPRLPRPRPRPVTFPRP | 0.172
RRIRFRPPRLPRPRPRPTVQPRP | 0.0692
RRIRDRPPRLPRPRPRPENSPRP | 0.0647
RRIRKRPPRLPRPRPRPKEGPRP | 0.0503
RRIRERPPRLPRPRPRPYPLPRP | -0.192
RRIRQRPPRLPRPRPRPNDQPRP | -0.00615
RRIRERPPRLPRPRPRPLAIPRP | -0.56

Sequence | shrunken log2 fold change
RRIRMRPPRLPRPRPRPEQNPRP | 2.47
RRIRWRPPRLPRPRPRPEVMPRP | 0.00589
RRIRCRPPRLPRPRPRPIWAPRP | -0.0162
RRIRTRPPRLPRPRPRPHSQPRP | -0.101
RRIRERPPRLPRPRPRPNNVPRP | -0.28
RRIRVRPPRLPRPRPRPSCLPRP | -0.618
RRIRVRPPRLPRPRPRPFYMPRP | -0.136
RRIRQRPPRLPRPRPRPQIKPRP | -0.498
RRIRSRPPRLPRPRPRPHLLPRP | -0.097
RRIRTRPPRLPRPRPRPHHVPRP | 0.0387
RRIRQRPPRLPRPRPRPAVAPRP | 0.0726
RRIRVRPPRLPRPRPRPMPTPRP | 0.282
RRIRTRPPRLPRPRPRPMNDPRP | -0.0997
RRIRLRPPRLPRPRPRPMRWPRP | 0.278
RRIRVRPPRLPRPRPRPRGDPRP | 0.754
RRIRGRPPRLPRPRPRPGTIPRP | 0.00615
RRIRERPPRLPRPRPRPTYPPRP | -1.11
RRIRNRPPRLPRPRPRPEYLPRP | 0.0183
RRIRMRPPRLPRPRPRPHFFPRP | -0.134
RRIRGRPPRLPRPRPRPMHRPRP | 0.405
RRIRLRPPRLPRPRPRPVHPPRP | 0.039
RRIRIRPPRLPRPRPRPWFYPRP | -0.161

Sequence | shrunken log2 fold change
RRIRHRPPRLPRPRPRPPATPRP | 0.29
RRIRLRPPRLPRPRPRPQAIPRP | -0.152
RRIRIRPPRLPRPRPRPYVWPRP | -1.33
RRIRTRPPRLPRPRPRPTDRPRP | -0.212
RRIRTRPPRLPRPRPRPVHLPRP | -0.123
RRIRWRPPRLPRPRPRPGIEPRP | 0.281
RRIRGRPPRLPRPRPRPLHVPRP | -0.0922
RRIRCRPPRLPRPRPRPTVDPRP | 0.337
RRIRIRPPRLPRPRPRPEKLPRP | -0.048
RRIRMRPPRLPRPRPRPKFLPRP | 0.192
RRIRFRPPRLPRPRPRPGPQPRP | 0.447
RRIRRRPPRLPRPRPRPETIPRP | 0.175
RRIRNRPPRLPRPRPRPCNCPRP | -0.00865
RRIRWRPPRLPRPRPRPKVPPRP | -0.0143
RRIRHRPPRLPRPRPRPRFPPRP | 0.0956
RRIRSRPPRLPRPRPRPNIIPRP | -0.774
RRIRGRPPRLPRPRPRPFNDPRP | -0.753
RRIRWRPPRLPRPRPRPFCAPRP | 0.23
RRIRERPPRLPRPRPRPFPEPRP | -0.426
RRIRRRPPRLPRPRPRPRFFPRP | 0.507
RRIRIRPPRLPRPRPRPKFYPRP | -0.713
